Experimental data: patent US20210246204A1 (Alector, published 2021)
Read-outs that look alike come from different tables or passages of the source.

Key:
[1] = target: T1, human Siglec-7 on primary human monocyte-derived dendritic cells (human, UniProt Q9Y286 19-467); assay: cell-based or functional assay
[2] = target: T2, histidine-tagged human Siglec-7 (NovoProtein) (human, UniProt Q9Y286 19-353); assay: BLI, antibody captured
T2 construct: Bought protein; also called recombinant human Siglec-7; recombinant Siglec-7; not shown: histidine tag
Outline: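 Antibodies captured on anti-human or anti-mouse IgG Fc biosensors; His-tagged human Siglec-7 flowed at 0–100 nM (200 s association, 900 s dissociation). ka and kd from 1:1 multi-concentration fit; apparent KD = kd/ka.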

[3] = target: T1, human Siglec-7 on primary human …; assay: cell-based or functional assay; remark: listed apart in the source
[4] = target: T2, histidine-tagged human Siglec-7 …; assay: BLI (ForteBio), antibody captured
Procedure: (§1) In this assay, the humanized antibodies were compared directly to S7AB. Briefly, the antibodies were captured on anti-human or anti-mouse IgG Fc Biosensors (Pall ForteBio). Varying concentrations (0-100 nM) of histidine-tagged human Siglec-7 (NovoProtein) were then bound to the captured anti-Siglec-7 surface (200 s association time, 900 s dissociation time). Multi-concentration kinetic analysis was performed using a 1:1 interaction model to extract association and dissociation rate constants (kₐ and kd, respectively) for each antibody. Apparent affinity constants (KD) were calculated from the ratio kd/kₐ.

[5] = target: T1, human Siglec-7 on primary human …; assay: flow cytometry, primary human dendritic cells
Procedure: The 12 humanized antibodies of S7AB were evaluated for binding to primary dendritic cells by flow cytometry. Monocytes were isolated from blood from healthy human donors using the RosetteSep™ monocyte isolation antibody cocktail (StemCell Technologies). The isolated monocytes were differentiated into dendritic cells with 100 ng/mL GM-CSF and 100 ng/mL IL-4 (Peprotech). Dendritic cells were incubated with dilutions of the anti-Siglec-7 antibodies for 30 minutes on ice in the dark, followed by a 30-minute incubation with a fluorescently-conjugated anti-human IgG secondary antibody. Cells were washed twice in FACS buffer (PBS+2% FBS, 2 mM EDTA), and flow cytometry was performed on a BD FACS Canto. Data were analyzed using FlowJo software (Ashland, Oreg.).

[6] = target: T2, histidine-tagged human Siglec-7 …; assay: BLI (ForteBio), antibody captured; Table 2 experiment; antibody captured on anti-IgG Fc Biosensors, 0-100 nM His-tagged Siglec-7
Procedure: as §1

[7] = target: T1, human Siglec-7 on primary human …; assay: cell-based or functional assay; remark: listed apart in the source

T2 sequence (Q9Y286 19-353 limits assumed): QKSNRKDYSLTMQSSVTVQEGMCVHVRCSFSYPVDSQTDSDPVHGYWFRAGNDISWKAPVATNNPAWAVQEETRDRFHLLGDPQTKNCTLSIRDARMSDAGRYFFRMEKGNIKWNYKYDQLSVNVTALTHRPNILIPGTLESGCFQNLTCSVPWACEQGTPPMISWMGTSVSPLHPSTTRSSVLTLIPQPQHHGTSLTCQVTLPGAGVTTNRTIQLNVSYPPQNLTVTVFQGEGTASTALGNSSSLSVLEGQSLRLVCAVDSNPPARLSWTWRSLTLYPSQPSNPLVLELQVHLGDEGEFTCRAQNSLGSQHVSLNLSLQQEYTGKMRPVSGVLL
T1 sequence (Q9Y286 19-467): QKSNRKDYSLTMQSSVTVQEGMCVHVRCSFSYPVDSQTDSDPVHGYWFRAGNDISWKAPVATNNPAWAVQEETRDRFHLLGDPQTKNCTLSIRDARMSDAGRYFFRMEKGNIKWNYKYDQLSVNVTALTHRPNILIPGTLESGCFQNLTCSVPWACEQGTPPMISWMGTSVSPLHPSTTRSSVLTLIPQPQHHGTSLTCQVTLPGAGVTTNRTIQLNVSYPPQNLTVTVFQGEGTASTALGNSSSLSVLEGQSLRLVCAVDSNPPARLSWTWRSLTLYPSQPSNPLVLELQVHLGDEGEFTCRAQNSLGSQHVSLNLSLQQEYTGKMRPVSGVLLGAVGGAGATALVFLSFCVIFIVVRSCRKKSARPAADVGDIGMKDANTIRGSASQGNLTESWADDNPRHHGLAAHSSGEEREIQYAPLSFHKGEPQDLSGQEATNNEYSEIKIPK

Binder | Receptor downregulation, (EC50) (pM) [1] [pM] | Kd [2] [nM] | koff [2] [s⁻¹] | kon [2] [M⁻¹ s⁻¹] | Fold increase in potency compared to Chimeric Ab [3] [fold] | Maximal downregulation (% Siglec-7 remaining) [3] [%] | Receptor downregulation, (EC50) (pM) [3] [pM] | koff [4] [s⁻¹] | kon [4] [M⁻¹ s⁻¹] | EC50 [5] [nM] | Kd [6] [nM] | Maximal downregulation (% Siglec-7 remaining) [7] [%] | Receptor downregulation, (pM, EC50) [7] [pM] | Kd [4] [nM]
S7AB-H8 (antibody, V domains shown, also called parental humanized antibody) VH: QVQLVQSGAEVKKPGASVKISCKASGYAFTNCWMNWVRQAPGQGLEWIGRIFPGNGHTNYAQKFQGRATLTEDTSTSTAYMELSSLRSEDTAVYYCARDYSDYYFDYWGQGTLVTVSS VL: DIQMTQSPSSLSASVGDRVTITCRASQDINTYLNWYQQKPGKAPKLLIYYTSRLHSGVPSRFSGSGSGTDYTLTISSLQPEDFATYYCQQGNTLPWTFGQGTKLEIK | 395 | 1.05 | 0.000174 | 166000 | 3 | 18.3 | 340 | 0.000125 | 145000 | 1.5 | 0.86 | – | – | –
S7AB-H11 (antibody, V domains shown) VH: QVQLVQSGAEVKKPGASVKISCKASGYAFTNCWMNWVRQAPGQGLEWIGRIFPGNGHTNYAQKFQGRATLTEDTSTSTAYMELSSLRSEDTAVYYCARDYSDYYFDYWGQGTLLTVSS VL: DIQMTQSPSSLSASVGDRVTITCRASQDINTYLNWYQQKPGKAPKLLIYYTSRLHSGVPSRFSGSGSGTDYTLTISSLQPEDFATYYCQQGNTLPWTFGQGTKLEIK | 411 | – | – | – | – | – | – | 0.000172 | 160000 | 1.2 | – | – | – | 1.07

Other lines, results leading:

Receptor downregulation, (EC50) (pM) [1] [pM] | Kd [2] [nM] | koff [2] [s⁻¹] | kon [2] [M⁻¹ s⁻¹] | Fold increase in potency compared to Chimeric Ab [3] [fold] | Maximal downregulation (% Siglec-7 remaining) [3] [%] | Receptor downregulation, (EC50) (pM) [3] [pM] | koff [4] [s⁻¹] | kon [4] [M⁻¹ s⁻¹] | EC50 [5] [nM] | Kd [6] [nM] | Maximal downregulation (% Siglec-7 remaining) [7] [%] | Receptor downregulation, (pM, EC50) [7] [pM] | Kd [4] [nM] | Binder
– | – | – | – | – | – | – | – | – | – | – | 2.9 | 68.6 | – | S7AB-H8.44 huIgG1 N297A (antibody, V domains shown) VH: QVQLVQSGAEVKKPGASVKVSCKASGYAFTAAWMNWVRQAPGQGLEWIGRIFPGLGHTNYAQKFQGRATLTEDTSTSTAYMELSSLRSEDTAVYYCARDYSDYYFDYWGQGTLVTVSS VL: DIQMTQSPSSLSASVGDRVTITCRGSQDINTYLNWYQQKPGKAPKLLIYYTSRLHSGVPSRFSGSGSGTDYTLTISSLQPEDFATYYCQQGNILPWTFGQGTKLEIK
432 | – | – | – | – | – | – | 0.000112 | 150000 | 1.5 | – | – | – | 0.74 | S7AB-H9 (antibody, V domains shown) VH: QVQLVQSGAEVKKPGASVKISCKASGYAFTNCWMNWVRQAPGQGLEWIGRIFPGNGHTNYAQKFQGRATLTEDTSTSTAYMELSSLRSEDTAVYYCARDYSDYYFDYWGQGTLVTVSS VL: DVQMTQSPSSLSASVGDRVTITCRASQDINTYLNWYQQKPGKAPKLLIYYTSRLHSGVPSRFSGSGSGTDYTLTISSLQPEDFATYYCQQGNTLPWTFGQGTKLEIK
447 | – | – | – | – | – | – | 0.000152 | 150000 | 5.6 | – | – | – | 1.01 | S7AB-H12 (antibody, V domains shown) VH: QVQLVQSGAEVKKPGASVKISCKASGYAFTNCWMNWVRQAPGQGLEWIGRIFPGNGHTNYAQKFQGRATLTEDTSTSTAYMELSSLRSEDTAVYYCARDYSDYYFDYWGQGTLLTVSS VL: DVQMTQSPSSLSASVGDRVTITCRASQDINTYLNWYQQKPGKAPKLLIYYTSRLHSGVPSRFSGSGSGTDYTLTISSLQPEDFATYYCQQGNTLPWTFGQGTKLEIK
